The supplement of paper PMC9170038

System: MS2 coat protein
Assay: apparent KD of MS2 coat protein; higher = weaker reporter binding
Conditions: Eterna round: R107
Method: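 RNA-MaP round R107: designed RNA switches with theophylline, tryptophan, arginine or FMN aptamers are transcribed on-chip within common flanks. They are titrated with SNAP-549-labelled MS2 coat protein in RNA-MaP buffer (100 mM Tris pH 7.5, 80 mM KCl, 4 mM MgCl2), without ligand or with the indicated ligand. Median apparent KD per design.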

[1] = input ligand: theophylline 20 uM
[2] = input ligand: theophylline 2 mM
[3] = input ligand: tryptophan 2.4 mM

Sequence	apparent KD of MS2 coat protein (input ligand: arginine 13.2 mM) [µM]	apparent KD of MS2 coat protein (input ligand: none) [µM]	apparent KD of MS2 coat protein [1] [µM]	apparent KD of MS2 coat protein [2] [µM]	apparent KD of MS2 coat protein [3] [µM]
AAUAAGCAGCUGCAUCAUGGGUGAGCAGAUACCAGCUAGGAAACUAGCCCUUGGCAGCUGCAACAUGAGGAUCACCCAUGUAAUA [(T)'-(M)'-(T1)-(T2)-(M1)-(M2)_Design5]	0.0471	0.0427	0.108	0.0463	0.0347
GGUUACUCUACGGCCGCCACUGAUAAAUAAUAAACCUGUACAUAAACAUGAGGAUCACCCAUGUACAGGACCGGGUAGUGUAACC [Tryptophan B 7]	0.0305	–	0.0412	0.0347	–
UGUACCUGUAUCUGGUCCAUAGUAUAACCUCGAGGACCGGUACGGCCGCCACUCGUCGGACCACAUGAGGAUCACCCAUGUACCG [theeternabot_exclusion_MS2_Trp_A_23]	0.0129	–	0.0178	0.0141	–
AACAUACAAUUUUAGGUGGAUAUAAGGCGGCGAGGACCGGUACGGCCGCCACUCGCGUACAUGAGGAUCACCCAUGUCUGAAACU [Same State - Tryptophan A (Freestyle 5)]	0.0146	0.0198	0.0281	0.0289	0.0244
GGAUUACGAAAGUAGUCCAUCAAGUUCGAGCGAGGACCGGUACGGCCGCCACUCGAACAUGAGGAUCACCCAUGUAGCGAAAGCU [Tryptophan A 21]	0.116	–	0.304	0.371	–
AUCGUACCUGAGGAUACCAGCAUGUGAUCAUAACAUGAGGAUCACCCAUGUAAUCAGUGAUGCCCUUGGCAGCUUGGUCGAUACA [Same State - Theophylline B (Freestyle 9)]	0.0425	–	0.075	–	0.0462
AAUCAUGAAAACAUGACAUGAGGAUCACUCCGAGGACCGGUACGGCCGCCACUCGCGAGGAGGCACAUGAGGAUCACCCAUGUUA [SS Tryp A #1]	0.0316	–	0.114	0.148	–
UCGUUGAAGUCGGCCGCCACUGAACUCAUGUUCAACAUGAGGAUCACCCAUGUACCUUAUUUUAACAGGACCGGGACUUUGACGA [JR_ExcTryptoB_Sub002]	0.113	–	0.229	0.164	–
CGCGGUUGAGAUGGGCCUUUGAUAAGUCUGCGAGGACCGGUACGGCCGCCACUCGAGGACAUGAGGAUCACCCAUGUACUUCGCG [Atriera]	0.0511	–	0.081	0.0577	–
UAUCCACAUGAGGAUCACCCAUGUUAGGAAGGAGCGGUGAAUGCACCAGGUAGGUCGCCUAGCUGAGGACUGUCGGUGGAUUCGU [Exclusion - Arginine A (Freestyle 19)]	0.033	0.0394	0.047	0.053	0.0403
UAAAACAUGAGGAUCACCCAUGUAAUUGAUACCAGAGUGAUGAUCCUCCCUUGGCAGCAAAACGCUGAUUGAUUACAAUCAGCGA [Mat - Same State Theophlline A - Mod of Eli - D24]	0.0368	–	0.169	–	0.0425
AAAAUAGAAGGAAGACAAAUAGAUACAGAAGGAGCGUAGGAAACUACAGGUAGGUCGCUGGAAAACAUGAGGAUCACCCAUGUAG [SSArg A #22 Slice of Pi Skeleton]	0.0315	0.0406	0.054	0.0469	0.0426
AAAGACAUGAGGAUCACCCAUGUGGGUGGGCGAGGACCGGUACGGCCGCCACUCGUGGGCGGGAAGGGAUAUUUAAUAAGGAAGA [same state--tryptophan A 1st shot]	0.05	0.102	0.155	0.272	0.131
GGCUAGUGCAUCGAUACCAGCUACAUGAGGAUCACCCAUGUAGGAAGGGUGGCACUCGAUAGCCCUUGGCAGCGAACACCUCCGG [Cebebion]	0.053	0.0189	0.0312	0.0281	0.0163
GGAUAGGACAGAAGGAGCGACAUGAGGAUCACCCAUGUCUACUAGGACGAAAGUCCGUCAUGUCAGGUAGGUCGCUGUCCUAUCG [#29 Exclusion - Arginine B]	0.0688	0.0887	0.103	0.114	0.0812
